Test results as given in patent publication US8343490B2, “Monoclonal antibody SC104 and derivative thereof specifically binding to a sialyltetraosyl carbohydrate as a potential anti-tumor therapeutic agent” (Cephalon Australia Pty Ltd, priority 2004, dated 2013).
Several values for one entry are separate records, joined by “and”; a condition that tells them apart may be missing. Identical values can stand only once.

Experiments:
[1] = tested on: frozen tumour tissue sections; assay: Immunohistochemistry staining of frozen tumour tissue sections; format: binding, Human
Description: (§1) • Immunohistochemistry staining of normal and tumour tissues. Human tissues were obtained from an Inveresk approved supplier. Each tissue used was snap frozen in liquid nitrogen and stored at approximately −70° C. (±10° C.). Cryostat sections were cut and placed onto super frost plus slides. All tissue samples were treated with an antigen marker appropriate for each tissue in order to confirm the preservation of antigens in that tissue. The markers used were keratin for epithelial bearing tissues, CD45 for all lymphoid tissues, and desmin for all cardiac and skeletal muscle. Each tissue was examined from three unrelated donors. The method of staining employed was an indirect, 2 or 3-stage method, using secondary and tertiary antibodies together with an avidin-biotin-peroxidase complex. Endogenous peroxidase activity was blocked using hydrogen peroxide. Endogenous biotin was blocked by treating all tissue sections with a sequence of avidin-biotin. When a tertiary antibody was used, all tissue sections were treated with normal swine serum, which inhibits the binding of tertiary antibodies to the tissues. Validation of the immunohistochemical staining method was determined by staining on positive control tissues, the absence on negative controls and the effect of fixation on staining of control tissues. SC104 was tested against 6 donors of colon tumour and one of heart at concentrations of […]. Tissues were fixed in either acetone or neutral buffered formalin. Two samples of colon tumour stained well enough for use as a positive control and there was no staining in heart. […] The lowest concentration of SC104 giving the maximum staining intensity was 1 μg/ml and this concentration was used for subsequent work. Results

[2] = tested on: frozen normal tissue sections; assay: Immunohistochemistry staining of frozen normal tissue sections; format: binding, Human
Description: as §1

[3] = tested on: range of tumour cell lines; assay: Binding to tumour cell lines by ELISA; details: SC104 1 μg/ml; FIG. 2a
Description: C170, Colo205, MKN45, R1D9, and 791T cells (10^5) were resuspended in 50 μl of SC104 mab (0-20 μg/ml) and incubated on ice for 20 min. After washing the samples 3 times in RPMI/10% FCS cells were incubated with FITC labelled rabbit anti-mouse (1/50: Dako Ltd, Bucks, UK) antibody and incubated on ice for 30 minutes prior to analysis on a FACScan (Becton Dickinson, Sunnyvale, Calif.). Results are expressed as mean linear fluorescence (MLF). • Binding to tumour cells by ELISA. 96-well tissue culture plates were coated with cells at a cell density of 5×10^5 cells/ml (100 μl/well) in 10% foetal bovine serum in RPMI 1640. The plates were incubated overnight at 37° C., 5% CO2, 95% air. The cells were then washed twice in phosphate buffered saline (pH7.3, PBS) prior to being fixed with 0.5% glutaraldehyde in PBS (10 min, 25° C., 100 μl/well). Remaining non-specific binding sites were blocked by incubation for 1 hr with 1% bovine serum albumin (fraction V from Sigma Chemicals Ltd.) in PBS. The cells were washed three times with a washing solution consisting of 0.05% Tween 20 in phosphate buffered saline. Cells were incubated with SC104 (1 μg/ml) for 1 hr at room temperature and then bound antibody detected with goat anti-mouse horse radish peroxidase and ABTS. Results are expressed as absorbance at 405 nm. Results

[4] = tested on: colorectal tumour extranuclear membranes; assay: ELISA on extranuclear membranes of colorectal tumour; format: binding; details: one line per patient (1-7)
Description: • Tumour and normal membrane extract binding. Extranuclear extractions of colorectal and normal colonic membranes were produced and binding of SC104 was assayed by ELISA. Results

[5] = Blood group antigen ELISA, H type II; format: binding
Description: The Lewis ^y hapten and the type I and type II H blood group antigen (Sigma, Poole, Dorset) were dried microtitre plates by overnight incubation at 37° C. Binding of SC104 mab was assayed by ELISA as described above.

caspase 6 in C170 cells = assay: Caspase 6 activation (Western blot); format: cell-based; details: 6 hrs; SC104 at 10, more intensely at 100 μg/ml; FIG. 18
Description: Caspase 6 activation by SC104 mab. 2×10^5 colorectal C170 cells were exposed to 1-100 μg/ml of SC104 for 6 hrs and cell lysates generated. The lysates were subsequently run a 12% SDS-PAGE, Western blotted and probed with a caspase 6 specific antibody (Cleaved caspase 6 antibody, Cell Signalling Technology (NEB), catalogue number 9761). Cells exposed to SC101 were included as a negative control.

C170 cells [6] = assay: Inhibition of SC104 cell death by z-FMK-vad caspase inhibitor; format: cell-based; details: 3 μg/ml SC104 with 3 μM z-FMK-vad inhibitor, overnight; annexin V FITC/PI
Description: SC104 inhibition of cell death using the z-FMK-vad caspase inhibitor. 2×10^5 C170 cells were subjected to 3 μg/ml of SC104 and half were also incubated with 3 μM z-FMK-vad inhibitor (Promega, catalogue number G7232) and incubated overnight. The following day cell viability was assayed using annexin V FITC and propidium iodide.

C170 cells [7] = assay: FACS antibody saturation on fresh and fixed cells; format: binding
Description: FACS on fresh and fixed cells. C170 cells (10^5) either fresh or fixed with 0.5% glutaraldehyde for 1 hr were resuspended in 100 μl of SC104 mab (0-100 μg/ml) and incubated on ice for 1 hr. After washing the samples 3 times in RPMI/10% FCS cells were incubated with FITC labelled rabbit anti-mouse (1/80: Dako Ltd, Bucks, UK) antibody and incubated on ice for 30 minutes prior to analysing by FACS as described above.

[8] = Normal Tissues: Large intestine
[9] = Normal Tissues: Parotid salivary gland
[10] = Normal Tissues: Small intestine
[11] = Normal Tissues: Urinary Bladder

B1: SC104: mouse IgG1 monoclonal antibody specific for a sialyltetraosyl carbohydrate, raised by immunisation with colorectal cancer cell lines (antibody, V domains shown)
VH: DVQLQESGPDLVKPSQSLSLTCTVTGYSITSGYSWHWVRQFPGNKMEWMGHIHFSGRPTYNPSLSSRISITRDTSKNQFLLQLKFVTTEDTSTYFCARKGKGSDDGLNYWGQGISVTVSS
VL: ENVLTQSPVIMSASPGEKVTMTCSASSSLSYIHWYQQKSRTSPKLWIYDTSNLASGVPGRFSGSGSGNSYSLTISSMEAEDVATYYCFQGSEYPLTFGGGTKLEMT
Immunoreactivity with frozen tissue sections (binding) ([1]; Tumours: Breast): 3/6
Immunoreactivity with frozen tissue sections (binding) ([1]; Tumours: Colon): 8/8
Immunoreactivity with frozen tissue sections (binding) ([1]; Tumours: Endometrial): 2/2
Immunoreactivity with frozen tissue sections (binding) ([1]; Tumours: Lung): 0
Immunoreactivity with frozen tissue sections (binding) ([1]; Tumours: Oesophageal): 4/4
Immunoreactivity with frozen tissue sections (binding) ([1]; Tumours: Ovary): 0
Immunoreactivity with frozen tissue sections (binding) ([1]; Tumours: Parotid): 2/2
Immunoreactivity with frozen tissue sections (binding) ([1]; Tumours: Prostate): 0
Immunoreactivity with frozen tissue sections (binding) ([1]; Tumours: Renal): 0
Immunoreactivity with frozen tissue sections (binding) ([1]; Tumours: Stomach): 4/4
Immunoreactivity with frozen tissue sections (binding) ([1]; Tumours: Testes): 0/1
lowest concentration giving the maximum staining intensity ([1]; colon tumour positive control, neutral buffered formalin): 1 µg/mL
Comments on staining ([2]; Normal Tissues: Brain): Small number of scattered glial cells
Immunoreactivity with frozen tissue sections (binding) ([2]; Normal Tissues: Brain): 1/2
Comments on staining ([2]; Normal Tissues: Breast): Epithelial cells scattered moderate
Immunoreactivity with frozen tissue sections (binding) ([2]; Normal Tissues: Breast): 2/3
Comments on staining ([2]; Normal Tissues: Fallopian tube): Epithelial cells scattered moderate
Immunoreactivity with frozen tissue sections (binding) ([2]; Normal Tissues: Fallopian tube): 2/3
Immunoreactivity with frozen tissue sections (binding) ([2]; Normal Tissues: Heart): 0
Immunoreactivity with frozen tissue sections (binding) ([2]; Normal Tissues: Kidney): 0
Comments on staining [2, 8]: Epithelial cells, mucous, diffuse
Immunoreactivity with frozen tissue sections (binding) [2, 8]: 3/3
Comments on staining ([2]; Normal Tissues: Lung): Alveolar lining cells one donor
Immunoreactivity with frozen tissue sections (binding) ([2]; Normal Tissues: Lung): 2/3
Comments on staining ([2]; Normal Tissues: Ovary): Follicular cells scattered and mild
Immunoreactivity with frozen tissue sections (binding) ([2]; Normal Tissues: Ovary): 3/3
Comments on staining [2, 9]: Moderate
Immunoreactivity with frozen tissue sections (binding) [2, 9]: 3/3
Immunoreactivity with frozen tissue sections (binding) ([2]; Normal Tissues: Placenta): 0
Comments on staining ([2]; Normal Tissues: Prostate): Epithelial cells scatted and moderate
Immunoreactivity with frozen tissue sections (binding) ([2]; Normal Tissues: Prostate): 3/3
Comments on staining ([2]; Normal Tissues: Skin): Diffuse minimal staining
Immunoreactivity with frozen tissue sections (binding) ([2]; Normal Tissues: Skin): 2/3
Comments on staining [2, 10]: Mucus superficial, diffuse minimal
Immunoreactivity with frozen tissue sections (binding) [2, 10]: 3/3
Immunoreactivity with frozen tissue sections (binding) ([2]; Normal Tissues: Spleen): 0
Comments on staining ([2]; Normal Tissues: Stomach): Mucus superficial, diffuse mild
Immunoreactivity with frozen tissue sections (binding) ([2]; Normal Tissues: Stomach): 2/3
Comments on staining ([2]; Normal Tissues: Thymus): Epithelial cells, Hassall's corpuscle,
Immunoreactivity with frozen tissue sections (binding) ([2]; Normal Tissues: Thymus): 3/3
Comments on staining ([2]; Normal Tissues: Tonsil): Keratinised epithelium, membrane,
Immunoreactivity with frozen tissue sections (binding) ([2]; Normal Tissues: Tonsil): 3/3
Comments on staining [2, 11]: Epithelial cells transitional
Immunoreactivity with frozen tissue sections (binding) [2, 11]: 2/2
Comments on staining ([2]; Normal Tissues: Uterine cervix): Epithelial cells, membrane, diffuse
Immunoreactivity with frozen tissue sections (binding) ([2]; Normal Tissues: Uterine cervix): 3/3
binding to range of tumour cell lines by ELISA [3]: predominantly bound to cell lines of the gastrointestinal origin
Binding of SC104 mab to extranuclear membranes: Colorectal Tumour [4]: 0.221 and 0.278 and 0.196 and 0.281 and 0.102 and 0.001 and 0.437
Binding to blood group antigens by ELISA: H blood group Type II [5]: 0.076 OD 405 nm
caspase 6 activation (caspase 6 in C170 cells): activation of caspase 6
increase in viable cells in the presence of the inhibitor (C170 cells [6]): 23%
number of SC104 haptens at the surface of C170 tumour cells (C170 cells [7]): approximately 4×10^5 sites per cell
antigen saturation on fresh and fixed cells (C170 cells [7]; SC104 0-100 μg/ml, FIG. 22): not saturated even at SC104 concentration of 100 μg/ml
